# According to patent publication US20210238229A1, “PEPTIDE FOR DISEASE TREATMENT” (UNIVERSITY COLLEGE CORK - NATIONAL UNIVERSITY OF IRELAND, …, priority 2018, published 2021):
# Where no end group is shown, it is not given here.
# How the values were obtained:
# [1] = tested on: HUVEC; assay: cAMP in primary human umbilical vein endothelial cells; format: cell-based; settings: 15 min stimulation
# Method: Primary human umbilical vein endothelial cells (HUVEC) were purchased from PromoCell (Heidelberg, Germany). HUVEC were cultured in 100 mm cell culture dishes and were seeded at 75,000 per well in 24-well plates at passage 5-7, for stimulation. Stimulation with Ang-(1-6) or C21 and the blockers was carried out as described above.
# cAMP concentration in cell lysates was determined using Direct cAMP ELISA kit (Enzo Life Sciences Ltd., Exeter, United Kingdom). Briefly, wells of 96-well plate (Goat Anti-Rabbit IgG pre-coated) were neutralized with 50 μl of Neutralizing Reagent. Next, 100 μl of acetylated cAMP standard or cell lysate was added, followed by 50 μl of blue cAMP-Alkaline Phosphatase Conjugate and 50 μl of yellow EIA Rabbit Anti-cAMP antibody. The plate was then incubated on a shaker (˜400 rpm) at room temperature for 2 h. Next, the wells were aspirated and rinsed three times with Wash Buffer (1:10, Tris buffered saline containing detergents and sodium azide in deionized water). After the final wash, the plate was tapped against clean paper towel to remove any remaining Wash Buffer. […] The enzymatic reaction was stopped by adding 50 μl of Stop Solution, and the absorbance at 405 nm was measured immediately. The cAMP concentration was determined from non-linear standard curve using GraphPad Prism 6.0 software. […]
# [2] = biological target: T1, AT2 receptor (Homo sapiens, UniProt P50052); assay: cAMP in AT2-transfected HEK293 cells; format: cell-based; settings: for intracellular cAMP production: AT2-transfected HEK293, 15 min stimulation
# T1 construct: expressed in transfected cells; host or cells: HEK-293, transient transfection with PolyFect
# T1 sequence (P50052 1-363): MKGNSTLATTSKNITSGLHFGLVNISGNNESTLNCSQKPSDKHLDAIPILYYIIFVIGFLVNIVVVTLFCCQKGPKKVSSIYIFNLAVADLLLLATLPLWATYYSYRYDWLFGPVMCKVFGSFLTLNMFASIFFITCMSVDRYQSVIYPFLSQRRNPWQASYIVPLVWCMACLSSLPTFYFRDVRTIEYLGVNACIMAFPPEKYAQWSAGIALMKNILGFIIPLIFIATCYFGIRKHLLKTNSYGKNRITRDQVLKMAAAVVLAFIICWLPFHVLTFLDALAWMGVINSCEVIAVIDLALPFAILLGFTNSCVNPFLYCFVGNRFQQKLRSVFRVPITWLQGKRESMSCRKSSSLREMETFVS
# Method: Human embryonic kidney (HEK-293) cells were cultured in DMEM medium supplemented with FBS (10%), HEPES buffer (1%), sodium pyruvate (1%), and L-glutamine (1%) and maintained under standard conditions (5% CO2, 95% humidity and 37° C.). Cells were cultured in 100 mm cell culture dishes and seeded in 48-well plates at a density of 75,000 cells per well. The next day, HEK-293 cells were transfected using a transient transfection procedure following the manufacturer's instructions. Briefly, 150 ng of control plasmid pcDNA3.1 or a combination of 50 ng of pcDNA3.1 and 100 ng of expression vectors containing the cDNA for Mas, MrgD, AT1 or AT2, were mixed with serum-free medium and PolyFect transfection reagent. After 10 min incubation at room temperature, which allowed the complex formation, complete medium was added and the total volume was transferred into appropriate wells of the 48-well plate. The cells were incubated for 16-20 hrs. The next day, the medium was replaced by serum-free medium 1 hr before stimulation. After stimulation with A779, D-Pro, PD123319, forskolin (all 10^−6 M), or PTX (50 ng/ml), or SQ22536 (2×10^−6M) for 15 min, the solvent, Ang-(1-6) or C21 (all in the mentioned concentrations) were added for 15 min. Then, the cells were lysed by adding 180 μl/well of 0.1M hydrochloric acid with 0.1% Triton X-100, and the lysates were stored at −80° C. until cAMP measurement. The protein concentration was determined using Pierce BCA Protein Assay Kit according to the manufacturer's protocol (Thermo Fisher Scientific, Waltham, Mass., USA).
# cAMP concentration in cell lysates was determined using Direct cAMP ELISA kit (Enzo Life Sciences Ltd., Exeter, United Kingdom). Briefly, wells of 96-well plate (Goat Anti-Rabbit IgG pre-coated) were neutralized with 50 μl of Neutralizing Reagent. Next, 100 μl of acetylated cAMP standard or cell lysate was added, followed by 50 μl of blue cAMP-Alkaline Phosphatase Conjugate and 50 μl of yellow EIA Rabbit Anti-cAMP antibody. The plate was then incubated on a shaker (˜400 rpm) at room temperature for 2 h. Next, the wells were aspirated and rinsed three times with Wash Buffer (1:10, Tris buffered saline containing detergents and sodium azide in deionized water). After the final wash, the plate was tapped against clean paper towel to remove any remaining Wash Buffer. To each well, 200 μl p-Nitrophenyl Phosphate Substrate Solution was added, and the plate was incubated for 1 h at room temperature. The enzymatic reaction was stopped by adding 50 μl of Stop Solution, and the absorbance at 405 nm was measured immediately. The cAMP concentration was determined from non-linear standard curve using GraphPad Prism 6.0 software.
# The results are illustrated by FIG. 1A.
# pcDNA-transfected HEK293 cells and AT2-transfected HEK293 cells were stimulated for 15 min with a range of concentrations (10^−16 to 10^−6 M) of Ang-(1-6). The results are illustrated by FIGS. 1B and 1C.
# AT2-transfected HEK293 cells were stimulated for 15 min with a range of concentrations (10^−13 to 10^−6 M) of C21, Ang (1-4) and Ang (1-7) PBS and the concentration of cAMP was measured in accordance with the methodology provided. The results are illustrated by FIGS. 6 and 7.
# AT2-transfected HEK293 cells were stimulated for 15 min with C21, Ang-(1-6) and a range of concentrations (10^−14 to 10^−7 M) of Ala^1-Ser^4-Ang-(1-6), and the concentration of cAMP was measured in accordance with the methodology provided.
# AT2-transfected HEK293 cells were stimulated for 15 min with Ang-(1-6) and a range of concentrations (10^−15 to 10^−7 M) of Ser^4-Ang-(1-6) and the concentration of cAMP was measured in accordance with the methodology provided.
# [3] = biological target: T1, AT2 receptor; assay: Block of Ang-(1-6) mediated cAMP signal in AT2-transfected HEK293 cells; format: cell-based; settings: Ang-(1-6) 10^−10 M, increasing antagonist concentrations
# Method: Human embryonic kidney (HEK-293) cells were cultured in DMEM medium supplemented with FBS (10%), HEPES buffer (1%), sodium pyruvate (1%), and L-glutamine (1%) and maintained under standard conditions (5% CO2, 95% humidity and 37° C.). Cells were cultured in 100 mm cell culture dishes and seeded in 48-well plates at a density of 75,000 cells per well. The next day, HEK-293 cells were transfected using a transient transfection procedure following the manufacturer's instructions. […] The protein concentration was determined using Pierce BCA Protein Assay Kit according to the manufacturer's protocol (Thermo Fisher Scientific, Waltham, Mass., USA).
# cAMP concentration in cell lysates was determined using Direct cAMP ELISA kit (Enzo Life Sciences Ltd., Exeter, United Kingdom). […] The enzymatic reaction was stopped by adding 50 μl of Stop Solution, and the absorbance at 405 nm was measured immediately. The cAMP concentration was determined from non-linear standard curve using GraphPad Prism 6.0 software.
# Cells were stimulated for 15 min with (a) 10^−11 M and 10^−1° M Ang-(1-6), (b) Ala^1-Ang-(1-6) (10^−10 M) or (c) a range of concentrations (10^−12M to 10^−8M) of Ala^1-Ang (1-6) together with Ang-(1-6) at a concentration of 10^−10M. The concentration of cAMP was measured in accordance with the methodology provided.
# [4] = Peptide degradation in mouse kidney membranes; format: in vitro ADME; settings: after 15 minutes, compared to Ang-(1-7) and Ang II
# Method: Peptides (10^−4M) were incubated with 45 μg of murine kidney membrane preparations and diluted with 50 mM Tris-HCl buffer pH 7.4 laced with 0.1% BSA to minimise adhesion of the peptide onto the tube walls. Incubations proceeded for the desired time, after which the reaction was stopped by addition of half volume of 350 mM HClO4. Samples were then centrifuged to remove any particulates prior to LCMS analysis.
# Ang-(1-6) degradation in mouse kidney membranes over 30 minutes compared to Ang-(1-7) and Ang II. (FIG. 4A)
# [5] = tested on: Human kidney cancer A498 cells; assay: Colony formation assay; format: cell-based; settings: daily treatment for 5 days
# Method: Human kidney cancer A498 cells were seeded at 300 cells/well in a 6-well plate. The next day, cells were treated with various peptides daily. Each condition was run in triplicate. After 5 days of treatment, cells were washed once with PBS after media removal, stained with 0.5% crystal violet in 30% ethanol and 3% formaldehyde for 10 min at RT and washed with distilled water. Colonies were counted under the microscope.
# Human renal cancer cells were treated with Ang-(1-6) or analogues and the effect on colony formation counted. Such cells are used for in vivo experiments in rodents when implanted subcutaneously or into the kidney to generate a rapidly forming and growing tumour, being leathal if untreated.
compound,measurement,setting,value
CCCCOC(=O)NS(=O)(=O)c1sc(CC(C)C)cc1-c1ccc(Cn2ccnc2)cc1 [C21],cAMP stimulation in primary endothelial cells (HUVEC),[1],can stimulate such cells
"ARVSIH [Ala^1-Ser^4-Ang-(1-6), variant of Ang-(1-6) with Ala at position 1 and Ser at position 4]",concentration at Emax (cAMP),[2]; AT2-transfected HEK293,10^−11 M
same,intracellular cAMP production,[2],increases intracellular cAMP production
same,increase in intracellular cAMP production compared with Ang (1-6),[2]; same concentration (10^−11M),greater increase
"ARVYIH [Ala^1-Ang-(1-6), variant of Ang-(1-6) with Ala at position 1, AT2 antagonist]",block of cAMP-generating capacity of Ang-(1-6),[3],completely blocked
same,intracellular cAMP production,[2],no effect
"DRVSIH [Ser^4-Ang-(1-6), variant of Ang-(1-6) with Ser at position 4]",AT2 stimulation relative to Ang (1-6),"[2]; AT2-transfected HEK293, 10^−15 to 10^−7 M",comparable to Ang (1-6)
same,intracellular cAMP production,[2],increases intracellular cAMP production
"DRVY (Angiotensin-2; UniProt P01019 25-28, looked up, fragment) [Ang (1-4), angiotensin fragment 1-4, reference compound]",intracellular cAMP production,[2],do not increase intracellular cAMP
"DRVYIH [Ang (1-6), DRVYIH]",peptide degradation,[4],rapid
"DRVYIHP [Ang (1-7), reference compound]",intracellular cAMP production,[2],do not increase intracellular cAMP
"RVSIH [Ser^4-Ang (2-6), fragment peptide 2-6 with Ser substitution]",number of colonies versus solvent (PBS),[5],significant reduction of colonies
"RVYIH [Ang (2-6), truncated version of Ang (1-6)]",number of colonies versus solvent (PBS),[5],significant reduction of colonies
